Results on 63 substances are retold here after the supplement of paper PMC10598134.

± gives the standard deviation.

A short description of this data set: collision cross section of unmodified peptide (TIMS, N2, iRT-aligned); higher = larger / more extended gas-phase ion. In outline: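 Synthetic peptide pools (~100 fmol/µL in 2% acetonitrile/0.1% formic acid, iRT standard spiked 1:40) were separated on a 120-min nanoflow C18 gradient at 60 °C. They were analysed on a timsTOF Pro/HT (dda-PASEF, nitrogen, ~2.4 mbar) and identified with MaxQuant. 1/K0 was calibrated with three reference ions and aligned run-wise to the median iRT peptide deviation. Collision cross section came from the Mason-Schamp equation, averaging 1–3 technical replicates of the most abundant feature per charge state.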

Regarding ITESVAETAQTIKK, the collision cross section (charge state: 2) is recorded as 434.75 ± 1.5 Å² and the collision cross section (charge state: 3) was 508.11 ± 2.5 Å².
On the same counts, the results for ITGKNQVTATK are 365.6 ± 0.91 Å² and 448.51 ± 5 Å².
On the same counts, the results for ITLSKHQNVQLPR are 434.86 ± 3.1 Å² and 515.94 ± 19 Å².
As for IVEKYGYTHLSAGELLR, the collision cross section came out at 489.48 ± 3 Å² (charge state: 2) and 538.24 ± 2.8 Å² (charge state: 3).
On the same counts, the results for IVFSGNLFQHQEDSKK are 493.09 ± 3.3 Å² and 531.43 ± 2 Å².
Turning to IVNVSLADLR, the collision cross section (charge state: 2) is on record as 359.17 ± 0.57 Å².
Turning to IVSGKDYNVTANSK, the collision cross section reads like this: (charge state: 2) 405.96 ± 2.6 Å²; (charge state: 3) 485.92 ± 5.8 Å².
In turn, IYELAAGGTAVGTGLNTR gave a collision cross section (charge state: 2) of 443.72 ± 1 Å².
As for IYHPNVDK, the collision cross section (charge state: 2) was found to be 337.77 ± 0.73 Å² and the collision cross section (charge state: 3) stood at 425.77 ± 2 Å².
Under “charge state: 3”, KDYQPGITFIVVQK gave a collision cross section of 508.05 ± 1.2 Å².
Consider KFGVLSDNFK, for which the collision cross section is, setting by setting: (charge state: 2) 368.49 ± 1.5 Å²; (charge state: 3) 446.92 ± 3.4 Å².
On to KITESVAETAQTIK, for which the collision cross section reads like this: (charge state: 2) 420.69 ± 0.66 Å²; (charge state: 3) 480.58 ± 0.22 Å².
KSQAGASELGPFSDPR yielded a collision cross section (charge state: 3) of 497 ± 1.7 Å².
Take KVQFAPEK: the collision cross section (charge state: 2) worked out at 329.36 ± 0.58 Å².
KVTLSVLSR had a collision cross section (charge state: 2) of 348.44 ± 0.58 Å² and a collision cross section (charge state: 3) of 443.31 ± 0.22 Å².
KYEEIDNAPEER: the collision cross section is, setting by setting: (charge state: 2) 401.01 ± 1.2 Å²; (charge state: 3) 466.95 ± 4.5 Å².
In the case of LAEEENKAK, the collision cross section by setting is: (charge state: 2) 348.48 ± 1.2 Å²; (charge state: 3) 421.19 ± 4.7 Å².
On the same counts, the results for LAEQEAHYAVR are 394.57 ± 1.1 Å² and 471.99 ± 1.1 Å².
On the same counts, the results for LAPEYEAAATR are 358.54 ± 0.15 Å² and 432.76 ± 0.89 Å².
Consider LDEKENLSAK, for which the collision cross section runs as follows: (charge state: 2) 363.87 ± 1.4 Å²; (charge state: 3) 445.27 ± 6.6 Å².
As for LDHLAEKFR, the collision cross section is, setting by setting: (charge state: 2) 365.36 ± 1.5 Å²; (charge state: 3) 453.05 ± 4 Å².
Substance LDINTNTYTSQDLK showed a collision cross section (charge state: 2) of 418.99 ± 0.69 Å².
Still for that read-out and setting: then LDLSSLAYSGK, with 363.06 ± 1.2 Å²; and LDYSDFQIVK, with 368.99 ± 0.6 Å².
In the case of LEENHYNTYISK, the collision cross section was 419.55 ± 1 Å² (charge state: 2) and 465.19 ± 1.2 Å² (charge state: 3).
On the same counts, the results for LEEVTGKLQVAR are 400.35 ± 5.3 Å² and 475.59 ± 4.3 Å².
On the same counts, the results for LEKDYQPGITFIVVQK are 447.32 ± 0.59 Å² and 488.88 ± 0.86 Å².
Consider LEKTIDDLEEK, for which the collision cross section (charge state: 2) was 403.94 ± 1.9 Å² and the collision cross section (charge state: 3) stood at 470.73 ± 4.5 Å².
As to LELAQYR, the collision cross section (charge state: 2) was determined as 324.63 ± 0.15 Å².
Regarding LEQVEKELLR, the collision cross section runs as follows: (charge state: 2) 383.51 ± 1.5 Å²; (charge state: 3) 455.22 ± 4.1 Å².
For LFVGGIKEDTEEHHLR, the collision cross section runs as follows: (charge state: 2) 486.85 ± 3.6 Å²; (charge state: 3) 544.82 ± 2.6 Å².
With LGDVYVNDAFGTAHR, the collision cross section by setting is: (charge state: 2) 434.69 ± 0.66 Å²; (charge state: 3) 501.14 ± 0.88 Å².
Substance LGGDLGTYVINK yielded a collision cross section (charge state: 2) of 369.28 ± 0.16 Å².
LGHYATQLQK: the collision cross section is on record as 363.47 ± 0.14 Å² (charge state: 2) and 429.28 ± 0.3 Å² (charge state: 3).
On the same counts, the results for LGILPVGRGK are 351.11 ± 0.11 Å² and 438.91 ± 4.7 Å².
On to LGNDFHTNKR, for which the collision cross section (charge state: 2) was found to be 369.4 ± 1.5 Å² and the collision cross section (charge state: 3) amounted to 431.93 ± 3.7 Å².
Turning to LGNTISSLFGGGTTPDAK, under “charge state: 2”, the collision cross section is listed as 447.17 ± 0.13 Å².
With LGPNDQYK, the collision cross section (charge state: 2) worked out at 325.88 ± 0.73 Å².
For LGPPGNPGPSGSPGPK, the collision cross section worked out at 383.56 ± 0.58 Å² (charge state: 2) and 453.1 ± 18 Å² (charge state: 3).
On the same counts, the results for LGPPGNPGPSGSPGPKGQK are 422.18 ± 1.4 Å² and 483.14 ± 1.2 Å².
In turn, LGSASSSHGSIQESHK returned a collision cross section (charge state: 3) of 509.47 ± 1.3 Å².
For LGSPSGKTGTCR, the collision cross section is, setting by setting: (charge state: 2) 383.86 ± 1.2 Å²; (charge state: 3) 458.08 ± 4.7 Å².
On the same counts, the results for LGTTPSVYGGAGGRGIR are 444.42 ± 1.7 Å² and 523.45 ± 1.1 Å².
On the same counts, the results for LGVATVAKGVCGACK are 433.92 ± 2.8 Å² and 487.58 ± 4.2 Å².
Regarding LGVPGLPGYPGR, where the note is “charge state: 2”, the collision cross section is recorded as 354.06 ± 0.41 Å².
Consider LGVPGLPGYPGRQGPK, for which the collision cross section is, setting by setting: (charge state: 2) 416.71 ± 0.59 Å²; (charge state: 3) 493.33 ± 24 Å².
In the case of LLALSGPGGGRGR, the collision cross section is, setting by setting: (charge state: 2) 381.45 ± 1.3 Å²; (charge state: 3) 451.48 ± 1.9 Å².
On the same counts, the results for LLEEEDSKLK are 382.28 ± 0.34 Å² and 444.51 ± 4.2 Å².
On the same counts, the results for LLEQKTQESQK are 394.71 ± 1.6 Å² and 453.32 ± 3.2 Å².
On the same counts, the results for LLFSNTAAQKLR are 416.62 ± 2.1 Å² and 485.85 ± 3.4 Å².
Regarding LLIVSTTPYSEKDTK, the collision cross section reads like this: (charge state: 2) 459.72 ± 2.9 Å²; (charge state: 3) 510.79 ± 5.4 Å².
LLRGVGGSHGR: the collision cross section reads like this: (charge state: 2) 358.18 ± 0.097 Å²; (charge state: 3) 450.84 ± 3.9 Å².
LNAIYQNNLTK showed a collision cross section (charge state: 2) of 381.14 ± 0.16 Å².
Still for that read-out and setting: then LPEYPQVDDLLLR, with 420.84 ± 0.76 Å².
As for LPPGALAHRLPTTGYLVYR, the collision cross section (charge state: 3) stood at 556.45 ± 1.4 Å².
With LPTTAASTPDAVDK, under “charge state: 2”, the collision cross section came to 396.7 ± 0.66 Å².
Turning to LQAAYAGDKADDIQK, the collision cross section reads like this: (charge state: 2) 429.74 ± 2.5 Å²; (charge state: 3) 497.53 ± 4.8 Å².
On the same counts, the results for LQDVSGQLSSSKK are 403.09 ± 1.5 Å² and 463.47 ± 6.3 Å².
On the same counts, the results for LQEKVESAQSEQK are 416.22 ± 2.1 Å² and 487.5 ± 6.9 Å².
LQIASDENYK came in with a collision cross section (charge state: 2) of 357.85 ± 0.48 Å².
Substance LQLEIDQKK returned a collision cross section (charge state: 2) of 366.48 ± 1.6 Å² and a collision cross section (charge state: 3) of 427.93 ± 3.7 Å².
For the setting “charge state: 3”, LQLGTPPPLLAARLVPPR came in with a collision cross section of 572.92 ± 0.68 Å².
Under “charge state: 2”, LQNSYQPTNK showed a collision cross section of 358.91 ± 0.48 Å².
